What all share (test): FRET or BRET; apparent FRET efficiency by donor (CFP) dequenching after photobleaching of the acceptor (YFP) with 514 nm in a membrane region of whole Xenopus oocytes that co-express the two labelled subunits (cRNAs 1:1)
Background: In BRET a luciferase serves as donor, and the signal depends on an acceptor being close.

The target of assay [1] is human mGluR8 FRET sensor subunit (CFP or YFP in the intracellular loop i2, C-terminal tail replaced by a GABAB tail).
The target in assay [2] is human mGluR3 FRET sensor subunit (CFP or YFP in the intracellular loop i2, C-terminal tail replaced by a GABAB tail).
Assay [3] has as its target human mGluR4 FRET sensor subunit (CFP or YFP in the intracellular loop i2, C-terminal tail replaced by a GABAB tail).
Assay [4] deals with human mGluR5 FRET sensor subunit (CFP or YFP in the intracellular loop i2, C-terminal tail replaced by a GABAB tail).

Consider “human mGluR4 FRET sensor subunit (CFP or YFP in the intracellular loop i2, C-terminal tail replaced by a GABAB tail) (receptor)”, for which the apparent FRET efficiency (donor dequenching) in assay [1] was 13%. “human mGluR2 FRET sensor subunit (CFP or YFP in the intracellular loop i2, C-terminal tail replaced by a GABAB tail) (receptor)”: the apparent FRET efficiency (donor dequenching) in assay [2], in assay [3] and in assay [1] was 35% each time. As to “human mGluR5 FRET sensor subunit (CFP or YFP in the intracellular loop i2, C-terminal tail replaced by a GABAB tail) (receptor)”, in assay [4], the increase of donor light intensity after photobleaching of the acceptor (FRET efficiency) was determined as 23%.

The values above are taken from paper PMC9883448.
